Data set [1] deals with T1, GST-Smad2/MH1 (Homo sapiens, UniProt Q15796 Q15796:1-242). The data set can be described thus: EMSA; data not shown. To be noted: tags: GST N-terminal (pGEX2TK, Pharmacia); label: 32P. The method, then: To evaluate whether the analogous domain of human Smad proteins could bind DNA, GST fusion proteins containing the MH1 domains of Smads 2, 3, and 4 were constructed and expressed in $E. coli$. Electrophoresis mobility shift assays (EMSA) were performed using the purified proteins and labeled oligonucleotides containing the optimal sequence from Vg, essentially as described by Kim et al ). […] However, the binding was relatively inefficient, typically resulting in shifts of less than 5% of the input Vg probe. Several experimental manipulations were employed to increase the efficiency of binding (such as variations of cation, salt concentration, competitor, and other components of the binding buffer) without success.
DNA-binding assays were performed essentially as described except that poly (dI-dC), 6 ug/ml, was used as the only competitor and 2% NP-40 was included in the reaction mix. For binding to PCR products derived from clones (e.g., FIG. 1), 1.0–0.5 ug protein […] and 50 ng of DNA end-labeled to 2×10^6 dpm/ug, was used. For binding to oligonucleotides, 0.3–0.5 ug of protein (~0.4 uM final concentration) and 0.5 ng of DNA end-labeled to 2×10^8 dpm/ug, was used. […] Quantitation of binding was performed using an Instant Imager (Packard).

Another data set concerns the target Smad4 (non-fusion) (Homo sapiens, UniProt Q13485 Q13485:1-552). The data set can be described thus: EMSA; data not shown. Particulars: tags: none; rabbit reticulocyte lysate; label: 32P.
A further data set addresses GST-Smad4/FL (Homo sapiens, UniProt Q13485 Q13485:1-552). The data set can be described thus: EMSA; full-length Smad4. Particulars: tags: GST N-terminal (pGEX2TK, Pharmacia); label: 32P. The method, then: (§1) (FIG. 2B) The ^32P-labeled SBE probe was incubated with 0.6 ug of a fusion protein containing either the MH1 domain of Smad4 (lane 1) or 0.4–1.6 ug of a fusion protein containing FL Smad4 (lanes 2–5).
(§2) DNA-binding assays were performed essentially as described except that poly (dI-dC), 6 ug/ml, was used as the only competitor and 2% NP-40 was included in the reaction mix. For binding to PCR products derived from clones (e.g., FIG. 1), 1.0–0.5 ug protein […] and 50 ng of DNA end-labeled to 2×10^6 dpm/ug, was used. For binding to oligonucleotides, 0.3–0.5 ug of protein (~0.4 uM final concentration) and 0.5 ng of DNA end-labeled to 2×10^8 dpm/ug, was used. Specificity of binding was checked by competition with unlabeled SBE oligonucleotides and lack of competition with irrelevant oligonucleotides. Quantitation of binding was performed using an Instant Imager (Packard).

Another data set deals with His6-Smad4 full length (Homo sapiens, UniProt Q13485 Q13485:1-552). The data set can be described thus: EMSA; full-length Smad4. To be noted: tags: His6 (pET33b, Novagen); label: 32P. How it is done: as §1, §2
Data set [2] has as its target T1, GST-Smad2/MH1. The data set can be described thus: EMSA; did not bind the palindrome (data not shown); exact probe not stated. Particulars: tags: GST N-terminal (pGEX2TK, Pharmacia); label: 32P.
A further data set addresses GST-Smad4/MH1 (Homo sapiens, UniProt Q13485 Q13485:1-276). The data set can be described thus: EMSA; bound to same extent as longer selected-clone probes; poly(dI-dC), 2% NP-40. Particulars: tags: GST N-terminal (pGEX2TK, Pharmacia); label: 32P. How it is done: as §1, §2
The next data set has as its target GST-Smad3/MH1 (Homo sapiens, UniProt P84022 P84022:1-200). The description is as above. Particulars: tags: GST N-terminal (pGEX2TK, Pharmacia); label: 32P. How it is done: as §1, §2

These results are taken from patent publication US6100032, “Human Smad3 and Smad4 are sequence-specific transcription activators” (Johns Hopkins University).

T1 sequence (Q15796 1-242, one chain of several): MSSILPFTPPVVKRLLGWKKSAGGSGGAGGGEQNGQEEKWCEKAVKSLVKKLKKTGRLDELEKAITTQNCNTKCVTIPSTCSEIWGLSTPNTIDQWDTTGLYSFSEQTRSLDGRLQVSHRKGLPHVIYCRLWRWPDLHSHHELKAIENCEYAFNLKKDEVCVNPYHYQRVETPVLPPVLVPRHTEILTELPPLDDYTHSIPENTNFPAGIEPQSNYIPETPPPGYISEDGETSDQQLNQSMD
Chain of GST-Smad4/MH1 (Q13485 1-276, one chain of several): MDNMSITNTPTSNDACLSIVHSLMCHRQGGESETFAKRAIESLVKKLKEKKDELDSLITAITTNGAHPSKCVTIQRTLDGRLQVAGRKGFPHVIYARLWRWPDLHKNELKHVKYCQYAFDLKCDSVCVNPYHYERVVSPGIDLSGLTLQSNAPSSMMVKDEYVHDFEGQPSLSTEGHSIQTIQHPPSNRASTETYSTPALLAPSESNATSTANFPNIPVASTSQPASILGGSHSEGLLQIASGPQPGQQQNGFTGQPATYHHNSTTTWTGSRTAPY
Chain of His6-Smad4 full length (Q13485 whole entry, one chain of several): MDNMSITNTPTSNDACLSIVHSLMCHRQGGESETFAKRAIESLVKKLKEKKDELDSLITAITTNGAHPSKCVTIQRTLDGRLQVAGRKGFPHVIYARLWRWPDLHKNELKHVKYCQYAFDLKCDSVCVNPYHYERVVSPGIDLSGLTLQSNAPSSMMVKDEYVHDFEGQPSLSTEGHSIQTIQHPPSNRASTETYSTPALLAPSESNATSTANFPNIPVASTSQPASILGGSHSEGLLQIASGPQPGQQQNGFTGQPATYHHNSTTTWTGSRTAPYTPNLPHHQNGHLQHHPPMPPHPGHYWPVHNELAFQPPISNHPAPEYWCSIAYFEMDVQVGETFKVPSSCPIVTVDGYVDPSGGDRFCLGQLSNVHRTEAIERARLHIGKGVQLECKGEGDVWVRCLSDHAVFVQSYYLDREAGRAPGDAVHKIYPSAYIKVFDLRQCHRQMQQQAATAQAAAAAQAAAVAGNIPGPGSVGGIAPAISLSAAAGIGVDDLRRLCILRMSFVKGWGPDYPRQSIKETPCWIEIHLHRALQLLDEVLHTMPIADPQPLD
Chain of Smad4 (non-fusion) (Q13485 whole entry, the tested form may be a part, one chain of several): as the sequence (Q13485 whole entry, one chain of several) above
Chain of GST-Smad4/FL (Q13485 whole entry, the tested form may be a part, one chain of several): as the sequence (Q13485 whole entry, one chain of several) above
Chain of GST-Smad3/MH1 (P84022 1-200, one chain of several): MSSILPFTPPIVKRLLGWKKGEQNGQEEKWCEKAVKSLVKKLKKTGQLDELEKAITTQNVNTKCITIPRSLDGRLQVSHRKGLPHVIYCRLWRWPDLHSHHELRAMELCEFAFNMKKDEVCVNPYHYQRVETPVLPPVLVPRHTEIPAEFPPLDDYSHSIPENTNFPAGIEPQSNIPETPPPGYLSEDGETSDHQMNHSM

B1: Vg probe (dsDNA)
DNA 1: TTTGTGCTTGGCTGCCGTCGCGATTCGACAACTTTGG
DNA 2: CCAAAGTTGTCGAATCGCGACGGCAGCCAAGCACAAA
Turning to B1, the binding result in the data set with GST-Smad2/MH1 [1] is “no binding”.

B2: SBE probe (26 bp) (dsDNA)
DNA 1: GGAGTATGTCTAGACTGACAATGTAC
DNA 2: GTACATTGTCAGTCTAGACATACTCC
For B2, the binding result in the data set with Smad4 (non-fusion) is “binds”; with GST-Smad4/FL, “binds”; in the data set with His6-Smad4 full length, “binds”; in the data set with GST-Smad2/MH1 [2], “no binding”; with GST-Smad4/MH1 it was “binds”; with GST-Smad3/MH1, “binds”.
